# Reference: the RNAGym collection of RNA variant scans (doi:10.1021/acssynbio.7b00057)
# B1: Pistol ribozyme (parent)
# chain: GGGUCGUUGUUCCAUAAUCGCGUGGAUAUGGCACGCAAGUUUCUACCGGGCACCGUAAAUGUCCGACUGGAGCCGUUCGGGCGGCUAUAAACAGACCUCAGGCCCGAAGCGUGGCGGCACCUGCCGCCGGUGGUAAAAAAGAUCGGAAGAGCACACGUCU
# Variants of: B1
# Assay: aptazyme ON/OFF ratio, guanine; higher = stronger switching; co-transcriptional cleavage with and without guanine
row,Variant,aptazyme ON/OFF ratio
1,U10A U11C C12A C13G,1.28
2,U10A U11C C12A C13A,1.17
3,G9U U11G C12G C13A,1.49
4,G9U U11G C12G C13G,1.36
5,G9U U11G C12G C13U,1.21
6,G9U U10C U11C C12U C13G,1.09
7,G9U U10C U11C C12U C13U,1.18
8,G9U U10C U11C C12U C13A,1.11
9,U10A U11C C12U C13A,1.06
10,U10A U11C C12U C13U,1.03
11,U10A U11C C12U C13G,1.08
12,U10A U11A C12U C13U,1.69
13,U10A U11A C12U C13G,1.35
14,U10A U11A C12U C13A,1.54
15,U10G U11G C12G C13U,1.26
16,U10G U11G C12G C13A,1.1
17,U10G U11G C12G C13G,1.18
18,G9U U11C C12U C13G,1.23
19,G9U U11C C12U C13A,1.51
20,G9U U11C C12U C13U,1.34
21,G9U U11C,2.53

row,Variant,aptazyme ON/OFF ratio
1,G9U U11G,1.74
2,G9U U11A,1.24
3,G9U U11C C12A C13G,1.36
4,G9U U11C C12A C13U,1.36
5,G9U U11C C12A C13A,1.48
6,G9U U10G C13G,1.29
7,G9U U10G C13U,1.65
8,G9U U10G C13A,1.52
9,U10A U11G C12U C13U,1.27
10,U10A U11G C12U C13A,1.62
11,U10A U11G C12U C13G,1.24
12,U10C C12U C13U,1.21
13,U10C C12U C13G,1.1
14,U10C C12U C13A,1.13
15,G9U U10C U11C C13A,1.04
16,G9U U10C U11C C13U,1.03
17,G9U U10C U11C C13G,1.06
18,U10C U11C C12A C13U,1.08
19,U10C U11C C12A C13G,1.17
20,U10C U11C C12A C13A,1.19
21,U10A C13U,1.08

row,Variant,aptazyme ON/OFF ratio
1,U10A C13G,1.1
2,U10A C13A,1.11
3,U10A C12A C13A,1.22
4,U10A C12A C13G,1.19
5,U10A C12A C13U,1.31
6,U10A U11C C13A,1.02
7,U10A U11C C13U,1.01
8,U10A U11C C13G,1.04
9,U10G U11G C12U C13G,1.3
10,U10G U11G C12U C13U,1.26
11,U10G U11G C12U C13A,1.32
12,U10G C12G C13A,1.17
13,U10G C12G C13G,1.09
14,U10G C12G C13U,1.34
15,U10G U11C C12A C13G,1.12
16,U10G U11C C12A C13A,1.23
17,U10G U11C C12A C13U,1.4
18,G9U U10G U11C C12G,1.65
19,G9U U10G U11C C12A,1.69
20,G9U U10G U11C C12U,1.08
21,G9U U10G U11A C13G,1.14

row,Variant,aptazyme ON/OFF ratio
1,G9U U10G U11A C13A,1.13
2,G9U U10G U11A C13U,1.08
3,U10C U11A C13U,1.23
4,U10C U11A C13A,1.25
5,U10C U11A C13G,1.08
6,U10G U11G C12A,1.37
7,U10G U11G C12U,1.38
8,U10G U11G C12G,1.4
9,G9U U10G U11A C12A C13G,1.7
10,G9U U10G U11A C12A C13U,1.37
11,G9U U10G U11A C12A C13A,1.56
12,U10C C13U,1.08
13,U10C C13G,1.05
14,U10C C13A,1.06
15,U10A U11A C13A,1.31
16,U10A U11A C13G,1.12
17,U10A U11A C13U,1.35
18,G9U U11C C12G,1.83
19,G9U U11C C12U,2.4
20,G9U U11C C12A,2
21,G9U U10G C12G C13A,1.44
